Where two headings read alike, the source gives them in different places.
T1: preassembled SNARE complex of GST–Sec22p, Sed5p, Bos1p and Bet1p (yeast, UniProt P22214;Q01590;P25385;P22804)
T1 sequence 1: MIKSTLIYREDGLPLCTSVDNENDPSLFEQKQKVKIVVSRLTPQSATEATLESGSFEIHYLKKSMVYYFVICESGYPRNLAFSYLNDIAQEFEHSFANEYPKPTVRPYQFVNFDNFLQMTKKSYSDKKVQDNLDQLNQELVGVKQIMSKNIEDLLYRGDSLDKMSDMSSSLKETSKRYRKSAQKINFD
T1 sequence 2: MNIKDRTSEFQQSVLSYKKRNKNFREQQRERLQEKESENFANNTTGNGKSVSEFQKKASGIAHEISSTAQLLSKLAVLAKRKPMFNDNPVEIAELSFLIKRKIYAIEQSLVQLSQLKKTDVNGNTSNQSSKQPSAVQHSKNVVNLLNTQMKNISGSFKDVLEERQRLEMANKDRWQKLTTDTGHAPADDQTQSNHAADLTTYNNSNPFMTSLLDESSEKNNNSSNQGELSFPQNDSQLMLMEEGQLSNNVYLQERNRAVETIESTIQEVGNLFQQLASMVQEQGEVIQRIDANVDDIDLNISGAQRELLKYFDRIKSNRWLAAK
T1 sequence 3: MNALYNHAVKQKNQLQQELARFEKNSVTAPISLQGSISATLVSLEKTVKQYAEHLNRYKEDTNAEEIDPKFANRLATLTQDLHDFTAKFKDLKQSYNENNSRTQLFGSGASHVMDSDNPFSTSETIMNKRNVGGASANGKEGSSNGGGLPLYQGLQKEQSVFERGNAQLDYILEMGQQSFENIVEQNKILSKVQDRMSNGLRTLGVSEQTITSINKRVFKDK
T1 sequence 4: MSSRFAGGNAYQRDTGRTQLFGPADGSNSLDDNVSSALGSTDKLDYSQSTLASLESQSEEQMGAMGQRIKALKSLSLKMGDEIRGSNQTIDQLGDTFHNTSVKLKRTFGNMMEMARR

T2: GST–Sec22p (yeast, UniProt P22214)
T2 sequence: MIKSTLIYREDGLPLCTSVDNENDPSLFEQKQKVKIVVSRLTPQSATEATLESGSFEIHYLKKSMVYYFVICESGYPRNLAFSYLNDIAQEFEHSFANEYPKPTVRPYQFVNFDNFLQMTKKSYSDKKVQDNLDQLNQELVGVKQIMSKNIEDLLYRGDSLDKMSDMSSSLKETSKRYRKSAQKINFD

T3: heterodimeric GST–Sed5p–His10-Sly1p complex bound to beads (S. cerevisiae, UniProt Q01590;P22213)
T3 sequence 1: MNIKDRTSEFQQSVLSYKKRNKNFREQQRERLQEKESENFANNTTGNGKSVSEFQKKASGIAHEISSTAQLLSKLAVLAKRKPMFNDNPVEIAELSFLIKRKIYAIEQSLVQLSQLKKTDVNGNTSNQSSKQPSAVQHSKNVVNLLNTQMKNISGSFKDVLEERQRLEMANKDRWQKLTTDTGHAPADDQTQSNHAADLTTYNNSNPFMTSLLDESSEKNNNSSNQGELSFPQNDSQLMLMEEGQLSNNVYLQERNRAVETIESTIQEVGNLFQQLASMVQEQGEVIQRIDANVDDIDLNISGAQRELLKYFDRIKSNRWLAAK
T3 sequence 2: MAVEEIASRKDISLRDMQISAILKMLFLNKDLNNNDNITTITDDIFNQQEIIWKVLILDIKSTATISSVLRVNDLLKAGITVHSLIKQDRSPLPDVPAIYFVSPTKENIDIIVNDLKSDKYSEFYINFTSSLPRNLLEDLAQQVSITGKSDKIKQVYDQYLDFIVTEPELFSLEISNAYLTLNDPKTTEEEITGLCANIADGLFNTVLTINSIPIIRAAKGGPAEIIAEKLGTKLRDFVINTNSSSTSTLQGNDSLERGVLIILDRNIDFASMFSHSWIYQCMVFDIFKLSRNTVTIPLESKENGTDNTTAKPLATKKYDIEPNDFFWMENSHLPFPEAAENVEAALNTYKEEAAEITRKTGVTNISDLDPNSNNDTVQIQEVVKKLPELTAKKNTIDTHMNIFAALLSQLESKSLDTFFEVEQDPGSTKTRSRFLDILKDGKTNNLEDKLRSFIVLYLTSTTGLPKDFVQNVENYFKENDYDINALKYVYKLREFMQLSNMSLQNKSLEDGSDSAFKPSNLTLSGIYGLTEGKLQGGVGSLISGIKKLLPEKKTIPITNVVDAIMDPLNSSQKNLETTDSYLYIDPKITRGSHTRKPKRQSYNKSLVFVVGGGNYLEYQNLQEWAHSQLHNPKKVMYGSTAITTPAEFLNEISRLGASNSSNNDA

T4: GST–Sed5p (entire cytosolic region) (S. cerevisiae, UniProt Q01590 1-324)
T4 sequence: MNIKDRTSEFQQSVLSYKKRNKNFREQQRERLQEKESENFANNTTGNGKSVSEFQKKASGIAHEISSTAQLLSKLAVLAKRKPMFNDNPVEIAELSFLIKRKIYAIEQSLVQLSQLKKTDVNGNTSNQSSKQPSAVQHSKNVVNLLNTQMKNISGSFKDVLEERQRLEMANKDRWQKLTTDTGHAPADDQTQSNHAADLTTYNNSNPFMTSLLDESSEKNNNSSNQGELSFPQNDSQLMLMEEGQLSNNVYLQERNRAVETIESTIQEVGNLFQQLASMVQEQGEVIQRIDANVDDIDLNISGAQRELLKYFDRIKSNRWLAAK


Legend:
Experiment in all cases: pull-down
[1] = target: T1, preassembled SNARE complex of …
[2] = target: preassembled SNARE complex of GST–Sec22p, Sed5p, Bos1p and Bet1p with Sly1p (yeast | S. cerevisiae, UniProt P22214;Q01590;P25385;P22804;P22213)
GST–Sec22p [3] = target: T2, GST–Sec22p
[4] = target: T3, heterodimeric GST–Sed5p–His10-Sly1p …
[5] = target: T4, GST–Sed5p (entire cytosolic region)
GST–Sec22p [6] = target: T2, GST–Sec22p; remark: listed apart in the source
GST–Sec22p [7] = target: T2, GST–Sec22p; remark: listed apart in the source
GST–Sec22p [8] = target: T2, GST–Sec22p; remark: listed apart in the source

Row | Binder | stoichiometry N [1] [Sec17p per Sed5p] | stoichiometry N [2] [Sec17p per Sed5p] | stoichiometry of Sly1p–Sed5p–Bos1p–Sec22p–Bet1p in the isolated complex (GST–Sec22p [3]) | stoichiometry N [4] [per Sed5p] | stoichiometry N [5] [per Sed5p] | stoichiometry N (GST–Sec22p [6]) [Sed5p per Sec22p] | stoichiometry N (GST–Sec22p [7]) [Sed5p per Sec22p] | stoichiometry N (GST–Sec22p [8]) [Sed5p per Sec22p]
1 | His6-Sec17p (full length) (natural protein) MSDPVELLKRAEKKGVPSSGFMKLFSGSDSYKFEEAADLCVQAATIYRLRKELNLAGDSFLKAADYQKKAGNEDEAGNTYVEAYKCFKSGGNSVNAVDSLENAIQIFTHRGQFRRGANFKFELGEILENDLHDYAKAIDCYELAGEWYAQDQSVALSNKCFIKCADLKALDGQYIEASDIYSKLIKSSMGNRLSQWSLKDYFLKKGLCQLAATDAVAAARTLQEGQSEDPNFADSRESNFLKSLIDAVNEGDSEQLSEHCKEFDNFMRLDKWKITILNKIKESIQQQEDDLL | 3.3 | 2.7 | – | – | – | – | – | –
2 | His6-Bet1p lacking the COOH-terminal membrane anchor (domain or fragment) MSSRFAGGNAYQRDTGRTQLFGPADGSNSLDDNVSSALGSTDKLDYSQSTLASLESQSEEQMGAMGQRIKALKSLSLKMGDEIRGSNQTIDQLGDTFHNTSVKLKRTFGNMMEMARR | – | – | 1.3 molar ratio (GST–Sec22p = 1.4) | 1.3 | 1.5 | – | – | –
3 | His6-Sed5p (NH2-terminally His6-tagged Sed5p lacking the COOH-terminal membrane anchor) (domain or fragment) MNIKDRTSEFQQSVLSYKKRNKNFREQQRERLQEKESENFANNTTGNGKSVSEFQKKASGIAHEISSTAQLLSKLAVLAKRKPMFNDNPVEIAELSFLIKRKIYAIEQSLVQLSQLKKTDVNGNTSNQSSKQPSAVQHSKNVVNLLNTQMKNISGSFKDVLEERQRLEMANKDRWQKLTTDTGHAPADDQTQSNHAADLTTYNNSNPFMTSLLDESSEKNNNSSNQGELSFPQNDSQLMLMEEGQLSNNVYLQERNRAVETIESTIQEVGNLFQQLASMVQEQGEVIQRIDANVDDIDLNISGAQRELLKYFDRIKSNRWLAAK | – | – | 1.2 molar ratio (GST–Sec22p = 1.4) | – | – | 0.5 | 1.1 | 0.3

— article PMC2173853 (The Journal of Cell Biology, 2002)
